Results published in article PMC8650758 (Cell reports, 2021).

What was measured:
DWnt-5(455-1004) [1] = biological target: T1, DWnt-5(455-1004) (D. melanogaster, UniProt P28466 455-1004, glycosylated at N484/485, N724 and N952; S868 unmodified (not lipid modified)); experiment: SPR
T1 sequence (looked up): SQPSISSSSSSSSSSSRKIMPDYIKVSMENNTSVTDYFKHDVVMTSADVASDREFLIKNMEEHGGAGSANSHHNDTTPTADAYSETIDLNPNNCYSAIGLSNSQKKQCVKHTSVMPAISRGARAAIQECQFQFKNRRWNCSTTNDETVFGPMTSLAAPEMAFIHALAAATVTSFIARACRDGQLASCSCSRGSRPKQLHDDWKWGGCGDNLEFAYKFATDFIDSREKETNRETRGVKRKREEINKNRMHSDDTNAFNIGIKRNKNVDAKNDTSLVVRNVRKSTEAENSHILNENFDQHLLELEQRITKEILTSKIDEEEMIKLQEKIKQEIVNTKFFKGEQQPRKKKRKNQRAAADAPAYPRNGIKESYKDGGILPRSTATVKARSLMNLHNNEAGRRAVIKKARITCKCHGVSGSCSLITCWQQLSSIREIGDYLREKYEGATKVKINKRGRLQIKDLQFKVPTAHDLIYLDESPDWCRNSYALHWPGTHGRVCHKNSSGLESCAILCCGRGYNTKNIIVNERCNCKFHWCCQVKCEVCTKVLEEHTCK

DWnt-5(455-1004) [2] = biological target: T1, DWnt-5(455-1004); experiment: pull-down

B1: sDrl-2 (Drl-2 ECR) (domain or fragment, D. melanogaster)
chain: GYLNIFISHHEVMKLMGLEADLFYVHEGAINTYAMHFTVPVPADVHELEFSWQSLIAYPLPYAISIEYNNDQEALGTPTLSIPHKGLVPQEIESFLVYLPCTGNASLQMPVNVNMVVRAPPRFNDTRLHFKRNKICAKGISPEPNQSPAPAHAPSQGPARPLESRGPFEGKPIPNPLLGLDSTRTG
B1 was tested, and the Kd (DWnt-5(455-1004) [1]) was 230 nM.

B2: sDnt (Dnt ECR) (domain or fragment, D. melanogaster)
chain: SEVAAHLNVFLNPVEVMRLLGVSAEVYYVREGHINNYALNFIVPVPANVKDISFTWQSLAGRGLPYSINVVSSDQEVLPRPAINVSHSGEIPTTIQTWSIALKCSGLKAAEVDVTVSLEVVLNRSLNNVTHLVFRRKKICLMNDSAEDLSEDVDDPQLLETVMLPPTGRPLESRGPFEGKPIPNPLLGLDSTRTG
For B2, the “fold weaker binding than the Drl and Drl-2 ECRs” value (DWnt-5(455-1004) [1]) was roughly 10 fold.

B3: sDrl183 (Drl WIF domain) (domain or fragment, D. melanogaster, UniProt Q27324 21-183, looked up)
chain: HLNIFLNLHEVLRLIGVSAELYYVREGAINDYALNFAVPVPANISDVTFTWQSLVDHPLPYSINIATSDTEVLPRPILNISRIGDVPVEPQTWGIALKCSGTRNAEVTVTINVEVILDRATNNNTNLIFKRKKICLREEQDSAHEEYDDDDLDLLQTARKGHG
B3: binds (DWnt-5(455-1004) [2]).

B4: sDrl242 E40K (domain or fragment, D. melanogaster, UniProt Q27324 21-242, looked up)
chain: HLNIFLNLHEVLRLIGVSAKLYYVREGAINDYALNFAVPVPANISDVTFTWQSLVDHPLPYSINIATSDTEVLPRPILNISRIGDVPVEPQTWGIALKCSGTRNAEVTVTINVEVILDRATNNNTNLIFKRKKICLREEQDSAHEEYDDDDLDLLQTARKGHGGDIHYVDRNDEHVVANGHQAPEKQRPVVTESPVGRGNSGGSKRDFDPMLRENLVPPASG
With B4 the “fold reduction of affinity against wild-type sDrl242” value (DWnt-5(455-1004) [1]) was roughly 10 fold.

B5: sDrl242 E126K (domain or fragment, D. melanogaster, UniProt Q27324 21-242, looked up)
chain: HLNIFLNLHEVLRLIGVSAELYYVREGAINDYALNFAVPVPANISDVTFTWQSLVDHPLPYSINIATSDTEVLPRPILNISRIGDVPVEPQTWGIALKCSGTRNAKVTVTINVEVILDRATNNNTNLIFKRKKICLREEQDSAHEEYDDDDLDLLQTARKGHGGDIHYVDRNDEHVVANGHQAPEKQRPVVTESPVGRGNSGGSKRDFDPMLRENLVPPASG
B5: binds (DWnt-5(455-1004) [1]).

B6: sDrl242 I154E (domain or fragment, D. melanogaster, UniProt Q27324 21-242, looked up)
chain: HLNIFLNLHEVLRLIGVSAELYYVREGAINDYALNFAVPVPANISDVTFTWQSLVDHPLPYSINIATSDTEVLPRPILNISRIGDVPVEPQTWGIALKCSGTRNAEVTVTINVEVILDRATNNNTNLIFKRKKECLREEQDSAHEEYDDDDLDLLQTARKGHGGDIHYVDRNDEHVVANGHQAPEKQRPVVTESPVGRGNSGGSKRDFDPMLRENLVPPASG
B6: binds (DWnt-5(455-1004) [1]).

B7: sDrl242 (Drl ECR) (domain or fragment, D. melanogaster, UniProt Q27324 21-242, looked up)
chain: HLNIFLNLHEVLRLIGVSAELYYVREGAINDYALNFAVPVPANISDVTFTWQSLVDHPLPYSINIATSDTEVLPRPILNISRIGDVPVEPQTWGIALKCSGTRNAEVTVTINVEVILDRATNNNTNLIFKRKKICLREEQDSAHEEYDDDDLDLLQTARKGHGGDIHYVDRNDEHVVANGHQAPEKQRPVVTESPVGRGNSGGSKRDFDPMLRENLVPPASG
B7 was tested, and the Kd (DWnt-5(455-1004) [1]) was 720 nM.
